Data from US20110250133A1, “GASTRIN […] PEPTIDE COMPOUNDS” (priority 2003, published 2011).
pKd: −log10 of the molar value.

Columns and labels:
mouse GRP-R (mouse) = mouse GRP-R (mouse) (UniProt P21729); assay: receptor autoradiography with 177Lu-L70
[1] = biological target: human bombesin receptor subtype 3 (BB3-R) (human) (UniProt P32247); assay: receptor autoradiography with 177Lu-L70
[2] = biological target: human neuromedin-B preferring receptor (NMB-R) (human) (UniProt P28336); assay: receptor autoradiography with 177Lu-L70
human neuromedin-B preferring receptor (NMB-R) (human), sequence (P28336 whole entry): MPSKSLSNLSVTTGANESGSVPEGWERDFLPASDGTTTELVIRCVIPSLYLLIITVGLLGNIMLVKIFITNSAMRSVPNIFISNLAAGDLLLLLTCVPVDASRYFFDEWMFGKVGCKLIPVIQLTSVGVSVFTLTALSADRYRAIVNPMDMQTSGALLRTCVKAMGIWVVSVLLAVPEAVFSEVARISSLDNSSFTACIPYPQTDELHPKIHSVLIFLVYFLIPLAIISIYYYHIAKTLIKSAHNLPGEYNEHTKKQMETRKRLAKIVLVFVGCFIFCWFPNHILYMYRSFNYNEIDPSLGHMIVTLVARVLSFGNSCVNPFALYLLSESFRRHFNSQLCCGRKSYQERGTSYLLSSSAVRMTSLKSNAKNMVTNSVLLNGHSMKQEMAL

[3] = biological target: gastrin releasing peptide receptor (GRP-R) (human) (UniProt P30550); assay: receptor autoradiography with 177Lu-L70
gastrin releasing peptide receptor (GRP-R) (human), sequence (P30550 whole entry): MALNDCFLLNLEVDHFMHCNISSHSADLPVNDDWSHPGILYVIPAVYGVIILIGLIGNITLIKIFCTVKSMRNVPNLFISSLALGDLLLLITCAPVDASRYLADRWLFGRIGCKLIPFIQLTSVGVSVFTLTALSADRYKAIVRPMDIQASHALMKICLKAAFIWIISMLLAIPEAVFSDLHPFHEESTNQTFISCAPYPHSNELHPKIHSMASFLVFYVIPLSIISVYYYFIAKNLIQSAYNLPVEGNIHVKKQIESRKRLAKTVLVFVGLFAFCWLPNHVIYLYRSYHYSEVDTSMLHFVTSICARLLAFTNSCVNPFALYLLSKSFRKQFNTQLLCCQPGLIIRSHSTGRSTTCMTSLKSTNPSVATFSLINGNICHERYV

[4] = biological target: gastrin releasing peptide receptor (GRP-R) (human) (UniProt P30550); assay: saturation binding on PC-3 cells
[5] = breast cancer patients; cited from earlier work

mouse GRP-R (mouse), sequence (P21729 whole entry): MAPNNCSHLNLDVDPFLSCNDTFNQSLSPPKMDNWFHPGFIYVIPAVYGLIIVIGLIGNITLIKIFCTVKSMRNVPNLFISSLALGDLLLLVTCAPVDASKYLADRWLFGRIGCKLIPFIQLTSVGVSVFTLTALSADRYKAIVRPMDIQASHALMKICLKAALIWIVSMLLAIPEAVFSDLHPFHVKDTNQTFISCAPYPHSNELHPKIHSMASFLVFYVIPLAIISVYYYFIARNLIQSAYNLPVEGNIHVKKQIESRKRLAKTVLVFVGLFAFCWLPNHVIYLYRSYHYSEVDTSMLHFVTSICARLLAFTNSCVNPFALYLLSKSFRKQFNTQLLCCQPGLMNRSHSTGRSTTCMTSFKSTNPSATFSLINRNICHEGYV
human bombesin receptor subtype 3 (BB3-R) (human), sequence (P32247 whole entry): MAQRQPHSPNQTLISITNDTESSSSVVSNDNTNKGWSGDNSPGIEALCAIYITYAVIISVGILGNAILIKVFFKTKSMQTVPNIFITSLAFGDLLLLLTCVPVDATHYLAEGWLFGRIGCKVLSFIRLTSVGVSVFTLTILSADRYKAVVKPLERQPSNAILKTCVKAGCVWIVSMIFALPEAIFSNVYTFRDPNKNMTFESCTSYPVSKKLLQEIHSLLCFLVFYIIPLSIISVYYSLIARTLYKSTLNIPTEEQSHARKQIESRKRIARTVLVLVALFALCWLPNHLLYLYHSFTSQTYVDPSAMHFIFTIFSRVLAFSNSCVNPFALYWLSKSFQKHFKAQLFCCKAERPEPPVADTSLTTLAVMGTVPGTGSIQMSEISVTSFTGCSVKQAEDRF

Row | Substance | tissues labelled / tissues tested (of 4 (Mouse pancreas, acini)) (mouse GRP-R (mouse)) | tissues labelled / tissues tested (of 6 (Bronchial carcinoid)) [1] | tissues labelled / tissues tested (of 8 (Ileal carcinoid)) [2] | tissues labelled / tissues tested (of 4 (Prostate Ca)) [3] | tissues labelled / tissues tested (of 5 (Chronic pancreatitis, acini)) [3] | tissues labelled / tissues tested (of 6 (Bronchial carcinoid)) [3] | tissues labelled / tissues tested (of 6 (Renal Ca)) [3] | tissues labelled / tissues tested (of 7 (Colon Ca, smooth muscle)) [3] | tissues labelled / tissues tested (of 7 (Colon Ca, tumor)) [3] | tissues labelled / tissues tested (of 7 (Human pancreas, acini)) [3] | tissues labelled / tissues tested (of 8 (Mammary Ca)) [3] | Binding capacity (Bmax) (fmoles/1 × 10^6 cells) [4] | pKd [4] | Receptors/cell (receptors/cell) [4] | overall response [5] [%]
1 | 177Lu-L70 (peptide) | 4 | 0 | 8 | 4 | 5 | 2 | 5 | 7 | 3 | 1 | 8 | 408 | 9.36 | 245000 | –
2 | Herceptin® | – | – | – | – | – | – | – | – | – | – | – | – | – | – | 9
